The text below walks through data of publication PMC5741103.

Assay [1] deals with SLMAP (UniProt Q14BN4). Description: co-IP, FLAG-MST2 and V5-SLMAP. Conditions: reference: wild type MST2; sites T325,T336,T378.
Assay [2] has as its target SLMAP (UniProt Q14BN4). Description: co-IP, MST2 variants and V5-SLMAP.

For the substance MST2 (from UniProt Q13188) MST2-3A, the “binding against the reference” value with SLMAP [1] was “lost”.

Turning to MST2 (from UniProt Q13188) MST2-7A, the “binding against the reference” value in the assay with SLMAP [2] (reference: MST2-6A/325T, sites T325) is “lost”; with SLMAP [2] (reference: MST2-6A/336T, sites T336), “lost”; with SLMAP [2] (reference: MST2-6A/378T, sites T378), “lost”.
